Measurements reported in doi:10.64898/2025.12.17.695035.

Biological target: E. coli RNAP as used in the ITC experiments (E. coli) (UniProt P0A7Z4)
Experiment: ITC

Substance: Escherichia phage protein EP1 (from UniProt A0A0N9RSC1 1-107) (natural protein)
- Kd: 34 nM
